Molecular target: MARY-MVP (protamine-tagged human major vault protein)
Assay: dynamic light scattering; DLS radii at varying MARY-MVP (0 to 7.3 nM) with INT-CFP fixed at 8.3 nM, pH 6.5 phosphate buffer, 50 mM NaCl, 1.5 mM MgCl2, after concentration

concentration of the transition from monomer to VLP: 5 nM
Substance: MARY-MVP (protamine-tagged human major vault protein)

Source: PMC12786146
